Measured values published in publication PMC2691818.

Experiments:
[1] = biological target: T1, h-mtTFA1-179 (Homo sapiens, UniProt Q00059 43-221); assay: competition
T1 sequence: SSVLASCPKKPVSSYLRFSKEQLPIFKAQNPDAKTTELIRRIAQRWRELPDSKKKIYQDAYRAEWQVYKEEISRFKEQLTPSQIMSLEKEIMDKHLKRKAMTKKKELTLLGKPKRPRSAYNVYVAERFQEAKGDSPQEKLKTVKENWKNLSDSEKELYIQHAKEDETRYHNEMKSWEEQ

[2] = biological target: T2, h-mtTFA box B (mtTFA110-179) (Homo sapiens, UniProt Q00059 152-221); assay: EMSA
T2 sequence: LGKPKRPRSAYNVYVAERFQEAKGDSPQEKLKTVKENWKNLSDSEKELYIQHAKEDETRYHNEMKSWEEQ

[3] = biological target: T1, h-mtTFA1-179; assay: EMSA
[4] = biological target: T3, h-mtTFA full-length (mature) (Homo sapiens, UniProt Q00059 43-246); assay: EMSA
T3 sequence: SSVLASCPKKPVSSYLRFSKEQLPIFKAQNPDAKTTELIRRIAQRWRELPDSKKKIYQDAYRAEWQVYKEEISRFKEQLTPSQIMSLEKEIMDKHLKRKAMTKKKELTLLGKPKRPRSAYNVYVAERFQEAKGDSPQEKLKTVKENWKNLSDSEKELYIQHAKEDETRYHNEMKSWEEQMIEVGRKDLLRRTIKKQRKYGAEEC

B1: 30 bp scrambled nonspecific DNA (NS DNA) (dsDNA)
DNA 1: ACTACTAACAGACCGCAACCTAAACACAAC
DNA 2: GTTGTGTTTAGGTTGCGGTCTGTTAGTAGT
binding result [1]: binds

B2: 30 bp LSP DNA, unlabeled (dsDNA)
DNA 1: GTGTTAGTTGGGGGGTGACTGTTAAAAGTG
DNA 2: CACTTTTAACAGTCACCCCCCAACTAACAC
binding result [2]: no binding

B3: 30 bp LSP DNA, 32P-labeled (dsDNA)
DNA 1: B2 DNA 1
DNA 2: B2 DNA 2
Kd [3]: 12 ± 1.7 nM | Kd [4]: 5.4 ± 0.6 nM
